Source: publication PMC3936483

Legend:
[1] = target: CTRP2 (C1q/TNF-related protein 2), C-terminal FLAG- or HA-tagged, full length (mouse) (UniProt Q9D8U4); test: SEC
[2] = target: serum CTRP2 (mouse (endogenous in C57BL/6 serum)) (UniProt Q9D8U4); test: SEC

CTRP2 (C1q/TNF-related protein 2), C-terminal FLAG- or HA-tagged, full length, sequence (Q9D8U4 25-294): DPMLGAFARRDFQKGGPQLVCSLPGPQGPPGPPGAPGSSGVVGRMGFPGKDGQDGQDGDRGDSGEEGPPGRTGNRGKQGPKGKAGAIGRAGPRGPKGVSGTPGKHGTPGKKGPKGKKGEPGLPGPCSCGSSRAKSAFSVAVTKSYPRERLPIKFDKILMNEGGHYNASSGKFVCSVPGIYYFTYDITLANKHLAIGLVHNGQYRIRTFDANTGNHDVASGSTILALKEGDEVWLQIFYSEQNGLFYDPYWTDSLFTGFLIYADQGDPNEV
serum CTRP2, sequence (Q9D8U4 25-294): as above

Substance	stoichiometry N [1]	stoichiometry N [2]
CTRP2 (C1q/TNF-related protein 2), C-terminal FLAG- or HA-tagged, full length (from UniProt Q9D8U4 25-294) (natural protein)	3	–
serum CTRP2 (from UniProt Q9D8U4 25-294) (natural protein)	–	3
